# Results from patent US7880053B2, “Methods of using transformed plants expressing plant-derived acyl-coenzyme-A-binding proteins in phytoremediation” (priority 2007, dated 2011).
# Entries after “also recorded” stand apart in the source; their conditions may differ.
# How the values were obtained:
# [1] = Heavy-metal-binding assay using metal-chelate affinity chromatography, Pb(II)-equilibrated matrix; details: for binding of in vitro translated ACBP to Pb(II): [35S]methionine-labeled protein, SDS-PAGE autoradiography, FIG. 2B
# From the text: (§1) The coding regions of ACBP1, ACBP2 and ACBP6 were generated by RT-PCR for construction of pGEM-T EASY (Promega) derivatives for in vitro transcription/translation. Primers used in RT-PCR were as follows: ACBP1 (ML190 (SEQ ID NO:20) and ML917 (SEQ ID NO:17), ACBP2 (ML902 (SEQ ID NO:21) and ML903 (SEQ ID NO:22)), and ACBP6 (ML812 (SEQ ID NO:23) and ML751 (SEQ ID NO:2)). The PCR products were subsequently cloned into pGEM-T EASY vector (Promega) for in vitro transcription/translation using the TNT® T7/SP6 Coupled Wheat Germ Extract System (Promega) following the manufacturer's instruction. Pb(II)-, Cd(II)-, and Cu(II)-equilibrated matrices for metal-binding assays were prepared by stripping Ni-NTA agarose (Qiagen) of nickel and re-equilibrating with 0.1 M Pb(NO3)2 (Aldrich), CdCl2 (Aldrich), or CuCl2 (Aldrich). Twenty μl of Pb(II)-, Cd(II)-, or Cu(II)-equilibrated matrix, 545 μl of 50 mM KH2PO4, 300 mM NaCl, pH 7.4, and [^35S]methionine-labeled protein were added to a microfuge tube (Dykema et al., Plant Mol. Biol. 41: 139-150, 1999) and rotated on a wheel at 4° C. for 1 h. Subsequently, the matrix was washed 3 times with 1.0 ml of 50 mM KH2PO4, 300 mM NaCl, pH 7.5. The binding protein was eluted with 200 μl of 50 mM KH2PO4, 300 mM NaCl, 500 mM imidazole, pH 4.5, followed by extraction with 200 μl of 2% SDS, 50 mM DTT, heating at 85° C. for 3 min and analysis by SDS-PAGE followed by autoradiography.
# [2] = Heavy-metal-binding assay using metal-chelate affinity chromatography, Cu(II)-equilibrated matrix; details: FIG. 2C
# From the text: as §1, with “The binding protein was eluted with 200 μl of 50 mM KH2PO4, 300 mM NaCl, 500 mM imidazole, pH 4.5, followed by extraction with 200 μl of 2% SDS, 50 mM DTT, heating at 85° C. for 3 min and analysis by SDS-PAGE followed by autoradiography.” left out
# [3] = Heavy-metal-binding assay using metal-chelate affinity chromatography, Cd(II)-equilibrated matrix; details: FIG. 2C
# From the text: as §1, with “The binding protein was eluted with 200 μl of 50 mM KH2PO4, 300 mM NaCl, 500 mM imidazole, pH 4.5, followed by extraction with 200 μl of 2% SDS, 50 mM DTT, heating at 85° C. for 3 min and analysis by SDS-PAGE followed by autoradiography.” left out
# ACBP6 transcript = assay: RT-PCR of ACBP transcripts in root after Pb(II) treatment; type: in vivo, Arabidopsis thaliana; details: 1 mM Pb(NO3)2, 24 h, 3-week-old Col-0 seedlings, FIG. 1
# Method: (§2) Arabidopsis thaliana wild-type Columbia (ecotype Col-0), ACBP1- and ACBP3-overexpressing transgenic plants (ecotype Col-0) were grown under 8 h dark at 21° C. and 16 h light at 23° C. cycles. For Pb(II)-inducible gene expression analysis, Arabidopsis seedlings were grown for 3 weeks in continuous light, treated with 1 mM Pb(NO3)2 or water (as control), and shoot and root samples were collected at 24 h post-treatment. For Pb(II) sensitivity tests, Arabidopsis seedlings were surface-sterilized and grown on Murashige and Skoog (Physiol. Plant. 15: 473-497, 1962) medium containing 2% sucrose with or without 0.75 mM Pb(NO3)2 (Sigma-Aldrich, St. Louis) for 2 to 3 weeks.
# (§3) To determine if the regulation of Arabidopsis ACBP mRNAs responds to Pb(II) stress, we performed reverse transcription-PCR(RT-PCR) using root tissue RNA following treatment with 1 mM Pb(NO3)2. For RT-PCR, total RNA was extracted with TRIzol (Invitrogen) reagent, according to the manufacturer's protocol, from roots of 3-week-old wild-type Arabidopsis (Col-0) seedlings in the presence or absence (water as control) of 1 mM Pb(NO3)2. RT-PCR analysis was performed as according to the manufacturer (Invitrogen Cat No. 12371-019). Specific primers were designed based on mRNA sequences. […]
# ACBP1 to ACBP5 mRNA = assay: as above; type: in vivo, Arabidopsis thaliana; details: 1 mM Pb(NO3)2, 24 h, 3-week-old Col-0 seedlings, FIG. 1
# Method: as §2, §3
# [4] = Lead-binding assay, fluorescence of dansylated (His)6-ACBP; details: 1 to 9 μM Pb(II), FIG. 2A
# Method: Lead-binding assays and fluorescence measurements were carried out according to Funaba and Mathews (Mol. Endocrinol. 14:1583-1591, 2000) with minor modifications. Briefly, 3.2 μM of each purified (His)6-ACBP protein which was equilibrated in 20 mM phosphate buffer (pH 7.2) with 200 mM NaCl, were labeled with 8 μl of 200 mM dansyl aziridine (Molecular Probes, Cat. No. D151) and reacted for 2 h in a 1.5 ml Eppendorf tube at room temperature. The dansylated (His)6-ACBP proteins were then distributed to 8 wells of a 96-well microtiter plate (Nunc Cat. No. 236105). Various concentrations (0, 1.0, 2.0, 3.0, 4.0, 5.0, 7.0 and 9.0 μM) of Pb(NO3)2 (Aldrich, Cat. No. 203580) solutions were added and the reactions were incubated at room temperature for 1 h.
# Fluorescence measurements were performed using a BIO-TEK FL600 Fluorescence Plate Reader (BIO-TEK Instrument, INC, USA) with excitation wavelength set at 360/40 nm and emission wavelength set at 530/25 nm. Prior to binding with lead, the dansyl aziridine coupled (His)6-ACBP recombinant proteins are sensitive to the conformational changes. After binding to Pb(II) molecules, the dansylated (His)6-ACBP recombinant proteins would change their conformations and the dye will show an increase in fluorescence excitation. […] Each experiment was repeated three times to ascertain results.
# [5] = EDTA at 50 mM final concentration
# [6] = [35S]methionine-labeled protein
molecule,measurement,setting,value
"O=C(O)CN(CCN(CC(=O)O)CC(=O)O)CC(=O)O [EDTA, ethylenediaminetetraacetic acid, reference compound]",effect on binding of ACBP2 to Pb(II),"[1]; EDTA at 50 mM final concentration, FIG. 2C",inhibited
same,effect on binding of ACBP2 to Cu(II),[2]; [5],inhibited
same,effect on binding of ACBP2 to Cd(II),[3]; [5],inhibited
O=[N+]([O-])[O-].O=[N+]([O-])[O-].[Pb+2] [Pb(II)],transcript of ACBP6 in roots,ACBP6 transcript,little change
same,mRNA expressions of ACBP1 to ACBP5 in roots,ACBP1 to ACBP5 mRNA,increase
"(His)6-ACBP4: recombinant (His)6-ACBP4 from pRSET B-derived vector pAT184 in E. coli (protein, UniProt Q9MA55 1-668, looked up, His6 tag, recombinant (His)6-ACBP4 from pRSET B-derived vector pAT184 in E. coli) Acyl-CoA-binding …: MAMPRATSGPAYPERFYAAASYVGLDGSDSSAKNVISKFPDDTALLLYALYQQATVGPCNTPKPSAWRPVEQSKWKSWQGLGTMPSIEAMRLFVKILEEDDPGWYSRASNDIPDPVVDVQINRAKDEPVVENGSTFSETKTISTENGRLAETQDKDVVSEDSNTVSVYNQWTAPQTSGQRPKARYEHGAAVIQDKMYIYGGNHNGRYLGDLHVLDLKSWTWSRVETKVATESQETSTPTLLAPCAGHSLIAWDNKLLSIGGHTKDPSESMQVKVFDPHTITWSMLKTYGKPPVSRGGQSVTMVGKTLVIFGGQDAKRSLLNDLHILDLDTMTWDEIDAVGVSPSPRSDHAAAVHAERFLLIFGGGSHATCFDDLHVLDLQTMEWSRPAQQGDAPTPRAGHAGVTIGENWFIVGGGDNKSGASESVVLNMSTLAWSVVASVQGRVPLASEGLSLVVSSYNGEDVLVAFGGYNGRYNNEINLLKPSHKSTLQTKTLEAPLPGSLSAVNNATTRDIESEVEVSQEGRVREIVMDNVNPGSKVEGNSERIIATIKSEKEELEASLNKERMQTLQLRQELGEAELRNTDLYKELQSVRGQLAAEQSRCFKLEVDVAELRQKLQTLETLQKELELLQRQKAASEQAAMNAKRQGSGGVWGWLAGSPQEKDDDSP","relative fluorescence intensity in the presence of Pb(II), indicative of binding to Pb(II)",[4],much higher than the other recombinant ACBPs
"(His)6-ACBP6: recombinant (His)6-ACBP6, 18.9 kDa inclusive of His-tag, from vector pAT335 in E. coli (protein, UniProt P57752 1-92, looked up, His6 tag, recombinant (His)6-ACBP6, 18.9 kDa inclusive of His-tag, from vector pAT335 in E. coli) Acyl-CoA-binding …: MGLKEEFEEHAEKVNTLTELPSNEDLLILYGLYKQAKFGPVDTSRPGMFSMKERAKWDAWKAVEGKSSEEAMNDYITKVKQLLEVAASKAST","relative fluorescence intensity in the presence of Pb(II), indicative of binding to Pb(II)",[4],bind Pb(II) less well than ACBP1
"ACBP6: in vitro translated [35S]methionine-labeled Arabidopsis ACBP6 (SEQ ID NO: 26), 10-kDa ACBP (protein, Arabidopsis) MGLKEEFEEHAEKVNTLTELPSNEDLLILYGLYKQAKFGPVDTSRPGMFSMKERAKWDAWKAVEGKSSEEAMNDYITKVKQLLEVAASKAST",binding of in vitro translated ACBP to Pb(II),[1],bind Pb(II) less well than ACBP1
"ACBP1: in vitro translated [35S]methionine-labeled Arabidopsis ACBP1 (SEQ ID NO: 27), wheat germ extract system (protein, Arabidopsis) MADWYQLAQSIIFGLIFAYLLAKLISILLAFKDENLSLTRNHTTQSEYENLRKVETLIGISGETDSLIAEQGSLRGDEDESDDDDWEGVESTELDEAFSAATAFVAAAASDRLSQKVSNELQLQLYGLYKIATEGPCTAPQPSALKMTARAKWQAWQKLGAMPPEEAMEKYIDLVTQLYPAWVEGGSKRRNRSGEAAGPMGPVFSSLVYEEESDNELKIDAIHAFAREGEVENLLKCIENGIPVNARDSEGRTPLHWAIDRGHLNVAEALVDKNADVNAKDNEGQTSLHYAVVCEREALAEFLVKQKADTTIKDEDGNSPLDLCESEWSWMREKKDSN",binding of in vitro translated ACBP to Pb(II),[1],bind Pb(II) better than ACBP6; also recorded: slightly better binding than ACBP2
"ACBP2 (protein, Arabidopsis) MGDWAQLAQSVILGLIFSYLLAKLISIVVTFKEDNLSLTRHPEESQLEIKPEGVDSRRLDSSCGGFGGEADSLVAEQGSSRSDSVAGDDSEEDDDWEGVESTELDEAFSAATLFVTTAAADRLSQKVPSDVQQQLYGLYKIATEGPCTAPQPSALKMTARAKWQAWQKLGAMPPEEAMEKYIEIVTQLYPTWLDGGVKAGSRGGDDAASNSRGTMGPVFSSLVYDEESENELKIDAIHGFAREGEVENLLKSIESGIPVNARDSEGRTPLHWAIDRGHLNIAKVLVDKNADVNAKDNEGQTPLHYAVVCDREAIAEFLVKQNANTAAKDEDGNSPLDLCESDWPWIRDSAKQAD",binding of in vitro translated ACBP to Pb(II),[1],bind Pb(II) better than ACBP6
same,binding of in vitro translated ACBP to Cu(II),[2]; [6],binds Cd(II) and Cu(II) better than ACBP6
same,binding of in vitro translated ACBP to Cd(II),[3]; [6],binds Cd(II) and Cu(II) better than ACBP6
